Substitutions are numbered along the chain they refer to. One block for each binder: values may come before it.
What was measured:
hLRRC33-proTGFβ1 [1] = biological target: T1, hLRRC33-proTGFβ1 (human, UniProt Q86YC3 19-650; P01137 30-390, limits assumed); assay: MSD-SET
T1 construct: LLC as m1; Same id used for the cell-surface complex in reporter assays; also called human LRRC33-proTGFβ1 complex; LRRC33-ProTGFb1

hLTBP1-proTGFβ1 [2] = biological target: T2, hLTBP1-proTGFβ1 (human, UniProt Q14766 347-1721; P01137 30-390, limits assumed); assay: MSD-SET
T2 construct: Large latent complex (LLC): proTGFβ1 dimer disulfide-linked to one presenting molecule; recombinant, purified, biotinylated in BLI/SPR; The same id is used for the complex made by transfected cells in the reporter assays; also called human LTBP1-proTGFβ1 complex; LTBP1-ProTGFb1

hLTBP3-proTGFβ1 [3] = biological target: T3, hLTBP3-proTGFβ1 (human, UniProt Q9NS15 44-1303; P01137 30-390, limits assumed); assay: MSD-SET
T3 construct: LLC as m1; Same id used for the cell-made complex in reporter assays; also called human LTBP3-proTGFβ1 complex; LTBP3-ProTGFb1

mLTBP1-proTGFβ1 = biological target: T4, mLTBP1-proTGFβ1 (mouse); assay: MSD-SET
T4 construct: Murine LLC; also called murine LTBP1-proTGFβ1 complex

mLRRC33-proTGFβ1 = mLRRC33-proTGFβ1 (murine, UniProt Q8BMT4 20-651); assay: MSD-SET
hGARP-proTGFβ1 [4] = biological target: T5, hGARP-proTGFβ1 (human, UniProt Q14392 18-627; P01137 30-390, limits assumed); assay: MSD-SET
T5 construct: LLC as m1; Same id used for the cell-surface complex in reporter assays; also called human GARP-proTGFβ1 complex; GARP-ProTGFb1

mGARP-proTGFβ1 = biological target: T6, mGARP-proTGFβ1 (mouse); assay: MSD-SET
T6 construct: Murine LLC; also called murine GARP-proTGFβ1 complex

mLTBP3-proTGFβ1 = biological target: T7, mLTBP3-proTGFβ1 (mouse); assay: MSD-SET
T7 construct: Murine LLC; also called murine LTBP3-proTGFβ1 complex

hLRRC33-proTGFβ1 [5] = biological target: T1, hLRRC33-proTGFβ1; assay: MSD-SET, hIgG4
Method: (§1) For solution equilibrium titration-based binding assays, protein complexes that comprise one of the presenting molecules such as those shown above may be employed as antigen (presenting molecule-TGFβ1 complex, or an LLC). Test antibodies are allowed to form antigen-antibody complex in solution. Antigen-antibody reaction mixtures are incubated to allow an equilibrium to be reached; the amount of the antigen-antibody complex present in the assay reactions can be measured by suitable means well known in the art. As compared to BLI-based assays, SET-based assays are less affected by on/off rates of the antigen-antibody complex, allowing sensitive detection of very high affinity interactions.

hLTBP1-proTGFβ1 [6] = biological target: T2, hLTBP1-proTGFβ1; assay: MSD-SET, hIgG4
Method: as §1

hLTBP3-proTGFβ1 [7] = biological target: T3, hLTBP3-proTGFβ1; assay: MSD-SET, hIgG4
Method: as §1

hGARP-proTGFβ1 [8] = biological target: T5, hGARP-proTGFβ1; assay: MSD-SET, hIgG4
Method: as §1

hLRRC33-proTGFβ1 [9] = biological target: T1, hLRRC33-proTGFβ1; assay: BLI (Octet)
hLTBP1-proTGFβ1 [10] = biological target: T2, hLTBP1-proTGFβ1; assay: BLI (Octet)
hLTBP3-proTGFβ1 [11] = biological target: T3, hLTBP3-proTGFβ1; assay: BLI (Octet)
hGARP-proTGFβ1 [12] = biological target: T5, hGARP-proTGFβ1; assay: BLI (Octet)
[13] = biological target: endogenous LTBP-proTGFβ1 of human LN229 cells (human, UniProt P01137 30-390); assay: cell-based or functional assay
hLRRC33-proTGFβ1 [14] = biological target: T1, hLRRC33-proTGFβ1; assay: cell-based or functional assay
hLTBP1-proTGFβ1 [15] = biological target: T2, hLTBP1-proTGFβ1; assay: cell-based or functional assay
hLTBP3-proTGFβ1 [16] = biological target: T3, hLTBP3-proTGFβ1; assay: cell-based or functional assay
hGARP-proTGFβ1 [17] = biological target: T5, hGARP-proTGFβ1; assay: cell-based or functional assay

T5 sequence (Q14392 18-627 limits assumed, chain 1 of 2): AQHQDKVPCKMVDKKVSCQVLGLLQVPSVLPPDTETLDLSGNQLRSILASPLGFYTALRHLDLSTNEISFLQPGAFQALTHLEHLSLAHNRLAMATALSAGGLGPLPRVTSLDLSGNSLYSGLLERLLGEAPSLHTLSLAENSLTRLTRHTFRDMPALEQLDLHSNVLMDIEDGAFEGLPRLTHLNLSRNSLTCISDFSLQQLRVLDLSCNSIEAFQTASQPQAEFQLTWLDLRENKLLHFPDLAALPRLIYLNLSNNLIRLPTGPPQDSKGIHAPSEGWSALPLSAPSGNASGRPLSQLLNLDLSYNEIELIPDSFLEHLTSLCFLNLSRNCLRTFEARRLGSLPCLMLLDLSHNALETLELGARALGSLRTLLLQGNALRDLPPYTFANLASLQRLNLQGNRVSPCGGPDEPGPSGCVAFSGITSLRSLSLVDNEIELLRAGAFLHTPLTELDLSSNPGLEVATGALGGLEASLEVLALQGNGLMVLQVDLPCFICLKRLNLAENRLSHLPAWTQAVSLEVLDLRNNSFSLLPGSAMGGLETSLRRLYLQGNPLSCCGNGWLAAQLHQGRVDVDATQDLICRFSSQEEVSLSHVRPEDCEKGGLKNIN
T5 sequence (P01137 30-390 limits assumed, chain 2 of 2): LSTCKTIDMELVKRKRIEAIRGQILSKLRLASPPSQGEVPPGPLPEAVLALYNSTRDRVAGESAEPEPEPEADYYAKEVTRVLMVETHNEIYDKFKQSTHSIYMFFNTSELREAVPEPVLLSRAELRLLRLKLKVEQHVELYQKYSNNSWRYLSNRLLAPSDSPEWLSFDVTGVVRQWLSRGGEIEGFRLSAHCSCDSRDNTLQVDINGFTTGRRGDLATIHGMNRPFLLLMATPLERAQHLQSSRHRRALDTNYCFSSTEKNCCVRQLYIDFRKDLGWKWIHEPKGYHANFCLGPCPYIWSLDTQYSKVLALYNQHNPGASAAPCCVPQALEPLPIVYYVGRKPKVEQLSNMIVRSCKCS
T3 sequence (Q9NS15 44-1303 limits assumed, chain 1 of 2): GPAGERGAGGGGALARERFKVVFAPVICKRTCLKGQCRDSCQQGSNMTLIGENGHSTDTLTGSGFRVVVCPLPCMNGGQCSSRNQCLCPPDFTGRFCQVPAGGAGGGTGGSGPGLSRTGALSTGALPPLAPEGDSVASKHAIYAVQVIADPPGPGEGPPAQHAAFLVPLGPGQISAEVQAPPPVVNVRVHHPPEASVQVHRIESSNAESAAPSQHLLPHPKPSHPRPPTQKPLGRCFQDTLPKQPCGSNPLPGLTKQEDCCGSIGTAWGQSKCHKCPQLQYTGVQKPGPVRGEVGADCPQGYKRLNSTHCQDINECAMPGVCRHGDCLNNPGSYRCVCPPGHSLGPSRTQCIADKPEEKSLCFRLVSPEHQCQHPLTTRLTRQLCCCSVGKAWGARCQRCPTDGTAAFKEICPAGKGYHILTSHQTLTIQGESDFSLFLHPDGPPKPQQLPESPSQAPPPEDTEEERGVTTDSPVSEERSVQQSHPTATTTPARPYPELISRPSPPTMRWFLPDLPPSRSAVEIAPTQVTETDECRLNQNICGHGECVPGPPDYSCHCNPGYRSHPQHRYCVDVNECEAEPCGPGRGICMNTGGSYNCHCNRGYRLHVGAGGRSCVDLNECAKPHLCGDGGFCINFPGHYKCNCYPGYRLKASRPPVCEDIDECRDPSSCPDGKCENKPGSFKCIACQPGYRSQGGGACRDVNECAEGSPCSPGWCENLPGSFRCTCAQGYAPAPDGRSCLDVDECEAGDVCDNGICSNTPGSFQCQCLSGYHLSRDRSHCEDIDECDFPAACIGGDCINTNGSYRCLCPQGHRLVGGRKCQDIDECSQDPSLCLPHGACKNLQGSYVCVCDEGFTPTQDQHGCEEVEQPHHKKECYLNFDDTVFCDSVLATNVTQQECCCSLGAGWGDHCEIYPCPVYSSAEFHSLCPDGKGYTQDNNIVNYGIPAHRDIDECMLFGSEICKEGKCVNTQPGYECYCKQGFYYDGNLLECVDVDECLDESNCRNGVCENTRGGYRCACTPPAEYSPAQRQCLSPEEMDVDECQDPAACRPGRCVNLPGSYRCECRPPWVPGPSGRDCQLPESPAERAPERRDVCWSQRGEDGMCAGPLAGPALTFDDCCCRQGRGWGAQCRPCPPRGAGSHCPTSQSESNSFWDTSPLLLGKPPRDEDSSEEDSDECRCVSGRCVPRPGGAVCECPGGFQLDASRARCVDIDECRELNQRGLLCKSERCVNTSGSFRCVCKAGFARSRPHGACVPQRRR
T3 sequence (P01137 30-390 limits assumed, chain 2 of 2): as the sequence (P01137 30-390 limits assumed, chain 2 of 2) above
T2 sequence (Q14766 347-1721 limits assumed, chain 1 of 2): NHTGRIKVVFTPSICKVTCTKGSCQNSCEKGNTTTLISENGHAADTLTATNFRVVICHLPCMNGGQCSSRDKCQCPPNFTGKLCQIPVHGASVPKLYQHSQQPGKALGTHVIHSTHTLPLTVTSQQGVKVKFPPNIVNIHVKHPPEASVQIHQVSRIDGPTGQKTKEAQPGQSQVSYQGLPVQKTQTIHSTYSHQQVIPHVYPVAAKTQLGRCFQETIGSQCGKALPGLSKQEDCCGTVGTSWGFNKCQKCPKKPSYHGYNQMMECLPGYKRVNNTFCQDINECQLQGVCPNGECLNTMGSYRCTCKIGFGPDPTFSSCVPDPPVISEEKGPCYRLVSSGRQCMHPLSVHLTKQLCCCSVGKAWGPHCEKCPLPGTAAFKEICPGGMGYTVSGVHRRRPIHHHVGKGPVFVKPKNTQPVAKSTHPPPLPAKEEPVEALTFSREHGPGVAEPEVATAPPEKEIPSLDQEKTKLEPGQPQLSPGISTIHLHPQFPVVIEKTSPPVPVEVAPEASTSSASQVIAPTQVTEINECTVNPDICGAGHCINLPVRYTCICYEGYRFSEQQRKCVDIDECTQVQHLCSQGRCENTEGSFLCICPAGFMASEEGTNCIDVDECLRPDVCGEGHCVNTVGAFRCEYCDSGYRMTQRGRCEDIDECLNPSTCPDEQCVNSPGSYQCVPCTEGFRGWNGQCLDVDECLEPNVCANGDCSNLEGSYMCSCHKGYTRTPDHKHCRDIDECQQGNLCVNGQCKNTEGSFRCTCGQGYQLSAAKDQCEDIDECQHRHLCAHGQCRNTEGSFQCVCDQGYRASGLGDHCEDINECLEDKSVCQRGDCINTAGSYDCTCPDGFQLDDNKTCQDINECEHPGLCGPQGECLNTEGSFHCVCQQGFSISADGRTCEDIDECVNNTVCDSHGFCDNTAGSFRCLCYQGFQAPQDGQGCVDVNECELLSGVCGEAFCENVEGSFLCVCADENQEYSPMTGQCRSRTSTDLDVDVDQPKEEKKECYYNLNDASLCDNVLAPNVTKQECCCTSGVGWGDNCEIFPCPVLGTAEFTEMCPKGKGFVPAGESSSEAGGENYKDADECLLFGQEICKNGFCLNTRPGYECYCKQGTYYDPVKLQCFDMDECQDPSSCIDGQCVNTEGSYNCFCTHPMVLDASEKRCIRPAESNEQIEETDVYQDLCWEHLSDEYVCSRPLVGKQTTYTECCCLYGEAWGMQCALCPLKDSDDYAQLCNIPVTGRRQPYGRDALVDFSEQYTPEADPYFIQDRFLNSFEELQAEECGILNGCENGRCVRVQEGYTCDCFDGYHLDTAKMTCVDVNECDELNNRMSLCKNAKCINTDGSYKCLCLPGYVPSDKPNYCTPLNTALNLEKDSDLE
T2 sequence (P01137 30-390 limits assumed, chain 2 of 2): as the sequence (P01137 30-390 limits assumed, chain 2 of 2) above
T1 sequence (Q86YC3 19-650 limits assumed, chain 1 of 2): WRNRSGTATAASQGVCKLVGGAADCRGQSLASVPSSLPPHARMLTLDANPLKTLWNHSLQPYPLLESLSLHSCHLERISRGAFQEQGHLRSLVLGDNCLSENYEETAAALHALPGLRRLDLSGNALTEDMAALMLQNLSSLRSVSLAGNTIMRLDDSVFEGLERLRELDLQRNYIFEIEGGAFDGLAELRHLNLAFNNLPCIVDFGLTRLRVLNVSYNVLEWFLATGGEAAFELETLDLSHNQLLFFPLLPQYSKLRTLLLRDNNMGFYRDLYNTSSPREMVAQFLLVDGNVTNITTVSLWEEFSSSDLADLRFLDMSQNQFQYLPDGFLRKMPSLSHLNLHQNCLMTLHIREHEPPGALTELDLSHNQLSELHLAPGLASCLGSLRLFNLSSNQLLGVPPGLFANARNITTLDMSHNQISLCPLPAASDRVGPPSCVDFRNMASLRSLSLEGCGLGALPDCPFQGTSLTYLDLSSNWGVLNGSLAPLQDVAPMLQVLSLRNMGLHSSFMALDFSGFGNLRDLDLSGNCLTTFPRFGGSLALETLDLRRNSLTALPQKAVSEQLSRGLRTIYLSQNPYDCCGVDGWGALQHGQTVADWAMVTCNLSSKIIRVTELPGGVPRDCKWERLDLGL
T1 sequence (P01137 30-390 limits assumed, chain 2 of 2): as the sequence (P01137 30-390 limits assumed, chain 2 of 2) above
Sequence of endogenous LTBP-proTGFβ1 of human LN229 cells (P01137 30-390): as the sequence (P01137 30-390 limits assumed, chain 2 of 2) above

Kd (hLRRC33-proTGFβ1 [1]): 0.063 nM | Kd (hLTBP1-proTGFβ1 [2]): 0.018 nM | Kd (hLTBP3-proTGFβ1 [3]): 0.029 nM | Kd (mLTBP1-proTGFβ1): 0.024 nM | Kd (mLRRC33-proTGFβ1): 0.048 nM | Kd (hGARP-proTGFβ1 [4]): 0.027 nM | Kd (mGARP-proTGFβ1): 0.021 nM | Kd (mLTBP3-proTGFβ1): 0.028 nM | Kd (hLRRC33-proTGFβ1 [5]): 0.063 nM | Kd (hLTBP1-proTGFβ1 [6]): 0.018 nM | Kd (hLTBP3-proTGFβ1 [7]): 0.029 nM | Kd (hGARP-proTGFβ1 [8]): 0.027 nM | Kd (hLRRC33-proTGFβ1 [9]): 0.336 nM | Kd (hLTBP1-proTGFβ1 [10]): 0.207 nM | Kd (hLTBP3-proTGFβ1 [11]): 0.123 nM | Kd (hGARP-proTGFβ1 [12]): 0.404 nM
B1: Ab6 (antibody, V domains shown)
VH: EVQLVESGGGLVQPGGSLRLSCTASGFTFSSFSMDWVRQAPGKGLEWVSYISPSADTIYYADSVKGRFTISRDNAKNTLYLQMNSLRAEDTAVYYCARGVLDYGDMLMPWGQGTLVTVSS
VL: DIQMTQSPSSLSASVGDRVTITCQASQDITNYLNWYQQKPGKAPKLLIYDASNLETGVPSRFSGSGSGTDFTFTISSLQPEDIATYYCQQADNHPPWTFGGGTKVEIKR
notes: Fully human IgG4/kappa

mAb IC50 [13]: 0.95 nM
B2: Ab46 (hIgG4) (antibody, V domains shown)
VH: EVQLLESGGGLVQPGGSLRLSCAASGFTFADYAMTWVRQAPGKGLEWVSAISGSGAATYFADSVKGRFTISRDNSKNTLYLQMNSLRAEDTAVYYCARVSSGHWDYDYWGQGTLVTVSS
VL: DIQLTQSPSSLSASVGDRVTITCRASQSISSYLNWYQQKPGKAPKLLIYAASGLESGVPSRFSGSGSGTDFTLTISSLQPEDFATYYCQQTYGVPLTFGGGTKVEIK

IC50, in vitro potency assay (hLRRC33-proTGFβ1 [14]): 0.858 nM | IC50, in vitro potency assay (hLTBP1-proTGFβ1 [15]): 24.3 nM | IC50, in vitro potency assay (hLTBP3-proTGFβ1 [16]): 10.4 nM | IC50, in vitro potency assay (hGARP-proTGFβ1 [17]): 0.981 nM | Kd (hLRRC33-proTGFβ1 [5]): 35 nM | Kd (hLTBP1-proTGFβ1 [6]): 13 nM | Kd (hLTBP3-proTGFβ1 [7]): 16.2 nM | Kd (hGARP-proTGFβ1 [8]): 28 nM | Kd (hLRRC33-proTGFβ1 [9]): 8.52 nM | Kd (hLTBP1-proTGFβ1 [10]): 0.47 nM | Kd (hLTBP3-proTGFβ1 [11]): 0.459 nM | Kd (hGARP-proTGFβ1 [12]): 17.3 nM
B3: Ab3 (antibody, V domains shown)
VH: B2 VH with A30R, D31N, T35S, A50S, A56G, F60Y, Y106F
VL: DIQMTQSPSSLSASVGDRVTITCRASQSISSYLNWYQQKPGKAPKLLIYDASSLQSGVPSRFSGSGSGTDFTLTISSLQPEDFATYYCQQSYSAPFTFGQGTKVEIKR

Reference: US20240294623A1 (SCHOLAR ROCK, published 2024)
